Source: patent publication US20250281613A1 (CELLECTIS S A, published 2025)

Molecular target: T1, CS1 recombinant protein (SEQ ID NO: 97), plate-bound
T1 chain: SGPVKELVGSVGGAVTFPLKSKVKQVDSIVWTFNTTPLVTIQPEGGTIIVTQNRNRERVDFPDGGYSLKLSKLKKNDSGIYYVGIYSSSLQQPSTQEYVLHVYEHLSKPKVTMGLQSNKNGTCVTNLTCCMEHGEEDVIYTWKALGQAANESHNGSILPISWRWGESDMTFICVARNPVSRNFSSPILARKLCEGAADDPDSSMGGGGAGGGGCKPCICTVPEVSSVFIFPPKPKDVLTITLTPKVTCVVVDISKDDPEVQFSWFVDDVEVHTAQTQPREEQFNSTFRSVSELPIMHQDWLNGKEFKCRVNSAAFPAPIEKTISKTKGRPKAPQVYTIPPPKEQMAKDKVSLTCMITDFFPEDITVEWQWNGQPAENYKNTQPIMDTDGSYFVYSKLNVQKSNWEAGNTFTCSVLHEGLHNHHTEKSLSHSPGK
Experiment: cell-based or functional assay

RNA-seq of CAR+ T cells 24 h after activation on plate-bound CS1 protein versus unactivated cells: genes induced (fold change greater than 5): 159 genes
B1: CS1-specific second generation CAR (SEQ ID NO: 96) on T cells (other)
chain: QVQLQQPGAELVRPGASVKLSCKASGYSFTTYWMNWVKQRPGQGLEWIGMIHPSDSETRLNQKFKDKATLTVDKSSSTAYMQLSSPTSEDSAVYYCARSTMIATRAMDYWGQGTSVTVSSGGGGSGGGGSGGGGSDIVMTQSQKSMSTSVGDRVSITCKASQDVITGVAWYQQKPGQSPKLLIYSASYRYTGVPDRFTGSGSGTDFTFTISNVQAEDLAVYYCQQHYSTPLTFGAGTKLELKTTTPAPRPPTPAPTIASQPLSLRPEACRPAAGGAVHTRGLDFACDIYIWAPLAGTCGVLLLSLVITLYCKRGRKKLLYIFKQPFMRPVQTTQEEDGCSCRFPEEEEGGCELRVKFSRSADAPAYQQGQNQLYNELNLGRREEYDVLDKRRGRDPEMGGKPRRKNPQEGLYNELQKDKMAEAYSEIGMKGERRRGKGHDGLYQGLSTATKDTYDALHMQALPPR
